Where two headings read alike, the source gives them in different places.
T1: DNA polymerase IV (Dpo4) (Sulfolobus solfataricus, UniProt Q97W02 1-352)
T1 sequence: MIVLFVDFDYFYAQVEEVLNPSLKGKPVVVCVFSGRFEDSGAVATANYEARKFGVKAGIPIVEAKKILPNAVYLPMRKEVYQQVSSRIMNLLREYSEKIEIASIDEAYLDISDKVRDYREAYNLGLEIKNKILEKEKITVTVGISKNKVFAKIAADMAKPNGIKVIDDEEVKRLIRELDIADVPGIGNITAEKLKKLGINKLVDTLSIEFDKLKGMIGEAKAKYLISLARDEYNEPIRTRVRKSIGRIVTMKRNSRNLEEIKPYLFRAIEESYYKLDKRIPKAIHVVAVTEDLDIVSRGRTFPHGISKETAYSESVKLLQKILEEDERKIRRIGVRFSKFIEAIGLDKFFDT

B1: 21/26-mer-dG1,8 (dsDNA)
DNA 1: AACGACGGCCAGTGAATTCGC
DNA 2: CCCGCGCGAATTCACTGGCCGTCGTT
modifications: template G6 (from 5') is dG1,8 = 8-(deoxyguanosin-N2-yl)-1-aminopyrene; lesion paired with primer 3' end
B2: 20/26-mer-dG1,8 (dsDNA)
DNA 1: AACGACGGCCAGTGAATTCG
DNA 2: CCCGCGCGAATTCACTGGCCGTCGTT
modifications: template G6 (from 5') is dG1,8 = 8-(deoxyguanosin-N2-yl)-1-aminopyrene; lesion is the templating base

How the values were obtained:
DNA polymerase IV (Dpo4) [1] = target: T1, DNA polymerase IV (Dpo4); test: EMSA
DNA polymerase IV (Dpo4) [2] = target: T1, DNA polymerase IV (Dpo4); test: EMSA; remark: listed apart in the source

Row | Binder | Kd (DNA polymerase IV (Dpo4) [1]) [nM] | Kd (DNA polymerase IV (Dpo4) [2]) [nM]
1 | B1 | 27 ± 3 | –
2 | B2 | – | 9 ± 2

Reference: PMC4582013
